Experimental data reported in patent US20220048967A1 (published 2022).
Residue numbers refer to the chain shown, from its start. Numbered stars: 1 amine (or outer) side, 2 acyl side, 3 side chain; on linkers, the order of the positions; unused ones are H or OH. Square brackets hold non-standard residues; d marks the D form. Side chains are listed from the residue outwards. Ends that are not written are not given here. * marks the point of attachment. C20 diacid = O=C(O)CCCCCCCCCCCCCCCCCCC(=O)*; C18 diacid = O=C(O)CCCCCCCCCCCCCCCCC(=O)*; γGlu = O=C(O)[C@H](CCC(=O)[*:2])N[*:1]; AEEA = NCCOCCOCC(=O)O; Aib = CC(C)(N)C(=O)O

B1: Example 266 (peptide)
peptide: Y[Aib]EGTFTSDYSILLDKK([AEEA-AEEA-γGlu-C18 diacid])AQ[Aib]AFIEYLIEGGPSSG-NH2
modifications: N-terminus assumed
SMILES: CC[C@H](C)[C@H](NC(=O)[C@H](CC(C)C)NC(=O)[C@H](Cc1ccc(O)cc1)NC(=O)[C@H](CCC(=O)O)NC(=O)[C@@H](NC(=O)[C@H](Cc1ccccc1)NC(=O)[C@H](C)NC(=O)C(C)(C)NC(=O)[C@H](CCC(N)=O)NC(=O)[C@H](C)NC(=O)[C@H](CCCCNC(=O)COCCOCCNC(=O)COCCOCCNC(=O)CC[C@H](NC(=O)CCCCCCCCCCCCCCCCC(=O)O)C(=O)O)NC(=O)[C@H](CCCCN)NC(=O)[C@H](CC(=O)O)NC(=O)[C@H](CC(C)C)NC(=O)[C@H](CC(C)C)NC(=O)[C@@H](NC(=O)[C@H](CO)NC(=O)[C@H](Cc1ccc(O)cc1)NC(=O)[C@H](CC(=O)O)NC(=O)[C@H](CO)NC(=O)[C@@H](NC(=O)[C@H](Cc1ccccc1)NC(=O)[C@@H](NC(=O)CNC(=O)[C@H](CCC(=O)O)NC(=O)C(C)(C)NC(=O)[C@@H](N)Cc1ccc(O)cc1)[C@@H](C)O)[C@@H](C)O)[C@@H](C)CC)[C@@H](C)CC)C(=O)N[C@@H](CCC(=O)O)C(=O)NCC(=O)NCC(=O)N1CCC[C@H]1C(=O)N[C@@H](CO)C(=O)N[C@@H](CO)C(=O)NCC(N)=O
B2: Example 264 (peptide)
peptide: YXEGTXTSDXSIXLDXKAQXEFIXXLIEGGPSSG
modifications: Aib2, αMeF(2F)6, 4Pal10, αMeF13 (so in the source), Orn16, (2-[2-(2-Amino-ethoxy)-ethoxy]-acetyl)2-(γ-Glu)-CO-(CH2)16-CO2H on K17, Aib20, D-Glu24, αMeY25, C-terminal NH2
B3: Example 258 (peptide)
peptide: Y[Aib]EGTFTSDYSILLDEK([AEEA-AEEA-γGlu-C20 diacid])AQKAFIEYLIEGGPSSGAPPPS-NH2
modifications: N-terminus assumed
SMILES: CC[C@H](C)[C@H](NC(=O)[C@H](CC(C)C)NC(=O)[C@H](Cc1ccc(O)cc1)NC(=O)[C@H](CCC(=O)O)NC(=O)[C@@H](NC(=O)[C@H](Cc1ccccc1)NC(=O)[C@H](C)NC(=O)[C@H](CCCCN)NC(=O)[C@H](CCC(N)=O)NC(=O)[C@H](C)NC(=O)[C@H](CCCCNC(=O)COCCOCCNC(=O)COCCOCCNC(=O)CC[C@H](NC(=O)CCCCCCCCCCCCCCCCCCC(=O)O)C(=O)O)NC(=O)[C@H](CCC(=O)O)NC(=O)[C@H](CC(=O)O)NC(=O)[C@H](CC(C)C)NC(=O)[C@H](CC(C)C)NC(=O)[C@@H](NC(=O)[C@H](CO)NC(=O)[C@H](Cc1ccc(O)cc1)NC(=O)[C@H](CC(=O)O)NC(=O)[C@H](CO)NC(=O)[C@@H](NC(=O)[C@H](Cc1ccccc1)NC(=O)[C@@H](NC(=O)CNC(=O)[C@H](CCC(=O)O)NC(=O)C(C)(C)NC(=O)[C@@H](N)Cc1ccc(O)cc1)[C@@H](C)O)[C@@H](C)O)[C@@H](C)CC)[C@@H](C)CC)C(=O)N[C@@H](CCC(=O)O)C(=O)NCC(=O)NCC(=O)N1CCC[C@H]1C(=O)N[C@@H](CO)C(=O)N[C@@H](CO)C(=O)NCC(=O)N[C@@H](C)C(=O)N1CCC[C@H]1C(=O)N1CCC[C@H]1C(=O)N1CCC[C@H]1C(=O)N[C@@H](CO)C(N)=O
B4: Example 267 (peptide)
peptide: Y[Aib]EGTFTSDYSILLDKK([AEEA-AEEA-γGlu-C18 diacid])AQ[Aib]AFIEYLIEGG-NH2
modifications: N-terminus assumed
SMILES: CC[C@H](C)[C@H](NC(=O)[C@H](CC(C)C)NC(=O)[C@H](Cc1ccc(O)cc1)NC(=O)[C@H](CCC(=O)O)NC(=O)[C@@H](NC(=O)[C@H](Cc1ccccc1)NC(=O)[C@H](C)NC(=O)C(C)(C)NC(=O)[C@H](CCC(N)=O)NC(=O)[C@H](C)NC(=O)[C@H](CCCCNC(=O)COCCOCCNC(=O)COCCOCCNC(=O)CC[C@H](NC(=O)CCCCCCCCCCCCCCCCC(=O)O)C(=O)O)NC(=O)[C@H](CCCCN)NC(=O)[C@H](CC(=O)O)NC(=O)[C@H](CC(C)C)NC(=O)[C@H](CC(C)C)NC(=O)[C@@H](NC(=O)[C@H](CO)NC(=O)[C@H](Cc1ccc(O)cc1)NC(=O)[C@H](CC(=O)O)NC(=O)[C@H](CO)NC(=O)[C@@H](NC(=O)[C@H](Cc1ccccc1)NC(=O)[C@@H](NC(=O)CNC(=O)[C@H](CCC(=O)O)NC(=O)C(C)(C)NC(=O)[C@@H](N)Cc1ccc(O)cc1)[C@@H](C)O)[C@@H](C)O)[C@@H](C)CC)[C@@H](C)CC)C(=O)N[C@@H](CCC(=O)O)C(=O)NCC(=O)NCC(N)=O
B5: Example 261 (peptide)
peptide: YXEGTFTSDYSILLDKKAQEAFIEYLIEGGPSSGAPPPS
modifications: Aib2, (2-[2-(2-Amino-ethoxy)-ethoxy]-acetyl)2-(γ-Glu)-CO-(CH2)18-CO2H on K17, C-terminal NH2
B6: Example 262 (peptide)
peptide: B5 peptide with E20T
modifications: Aib2, (2-[2-(2-Amino-ethoxy)-ethoxy]-acetyl)2-(γ-Glu)-CO-(CH2)18-CO2H on K17, C-terminal NH2
B7: Example 263 (peptide)
peptide: B5 peptide with E20S
modifications: Aib2, (2-[2-(2-Amino-ethoxy)-ethoxy]-acetyl)2-(γ-Glu)-CO-(CH2)18-CO2H on K17, C-terminal NH2
B8: Example 259 (peptide)
peptide: Y[Aib]EGTFTSDYSILLDEK([AEEA-AEEA-γGlu-C20 diacid])AQ[Aib]AFIEYLIEGGPSSGAPPPS-NH2
modifications: N-terminus assumed
SMILES: CC[C@H](C)[C@H](NC(=O)[C@H](CC(C)C)NC(=O)[C@H](Cc1ccc(O)cc1)NC(=O)[C@H](CCC(=O)O)NC(=O)[C@@H](NC(=O)[C@H](Cc1ccccc1)NC(=O)[C@H](C)NC(=O)C(C)(C)NC(=O)[C@H](CCC(N)=O)NC(=O)[C@H](C)NC(=O)[C@H](CCCCNC(=O)COCCOCCNC(=O)COCCOCCNC(=O)CC[C@H](NC(=O)CCCCCCCCCCCCCCCCCCC(=O)O)C(=O)O)NC(=O)[C@H](CCC(=O)O)NC(=O)[C@H](CC(=O)O)NC(=O)[C@H](CC(C)C)NC(=O)[C@H](CC(C)C)NC(=O)[C@@H](NC(=O)[C@H](CO)NC(=O)[C@H](Cc1ccc(O)cc1)NC(=O)[C@H](CC(=O)O)NC(=O)[C@H](CO)NC(=O)[C@@H](NC(=O)[C@H](Cc1ccccc1)NC(=O)[C@@H](NC(=O)CNC(=O)[C@H](CCC(=O)O)NC(=O)C(C)(C)NC(=O)[C@@H](N)Cc1ccc(O)cc1)[C@@H](C)O)[C@@H](C)O)[C@@H](C)CC)[C@@H](C)CC)C(=O)N[C@@H](CCC(=O)O)C(=O)NCC(=O)NCC(=O)N1CCC[C@H]1C(=O)N[C@@H](CO)C(=O)N[C@@H](CO)C(=O)NCC(=O)N[C@@H](C)C(=O)N1CCC[C@H]1C(=O)N1CCC[C@H]1C(=O)N1CCC[C@H]1C(=O)N[C@@H](CO)C(N)=O
B9: Example 260 (peptide)
peptide: Y[Aib]EGTFTSDHSILLDKK([AEEA-AEEA-γGlu-C20 diacid])AQ[Aib]AFIEYLIEGGPSSGAPPPS-NH2
modifications: N-terminus assumed
SMILES: CC[C@H](C)[C@H](NC(=O)[C@H](CC(C)C)NC(=O)[C@H](Cc1ccc(O)cc1)NC(=O)[C@H](CCC(=O)O)NC(=O)[C@@H](NC(=O)[C@H](Cc1ccccc1)NC(=O)[C@H](C)NC(=O)C(C)(C)NC(=O)[C@H](CCC(N)=O)NC(=O)[C@H](C)NC(=O)[C@H](CCCCNC(=O)COCCOCCNC(=O)COCCOCCNC(=O)CC[C@H](NC(=O)CCCCCCCCCCCCCCCCCCC(=O)O)C(=O)O)NC(=O)[C@H](CCCCN)NC(=O)[C@H](CC(=O)O)NC(=O)[C@H](CC(C)C)NC(=O)[C@H](CC(C)C)NC(=O)[C@@H](NC(=O)[C@H](CO)NC(=O)[C@H](Cc1c[nH]cn1)NC(=O)[C@H](CC(=O)O)NC(=O)[C@H](CO)NC(=O)[C@@H](NC(=O)[C@H](Cc1ccccc1)NC(=O)[C@@H](NC(=O)CNC(=O)[C@H](CCC(=O)O)NC(=O)C(C)(C)NC(=O)[C@@H](N)Cc1ccc(O)cc1)[C@@H](C)O)[C@@H](C)O)[C@@H](C)CC)[C@@H](C)CC)C(=O)N[C@@H](CCC(=O)O)C(=O)NCC(=O)NCC(=O)N1CCC[C@H]1C(=O)N[C@@H](CO)C(=O)N[C@@H](CO)C(=O)NCC(=O)N[C@@H](C)C(=O)N1CCC[C@H]1C(=O)N1CCC[C@H]1C(=O)N1CCC[C@H]1C(=O)N[C@@H](CO)C(N)=O
B10: Example 265 (peptide)
peptide: YXEGTXTSDXSIXLDXKAQXEFIXXLIEGG
modifications: Aib2, αMeF(2F)6, 4Pal10, αMeF13 (so in the source), Orn16, (2-[2-(2-Amino-ethoxy)-ethoxy]-acetyl)2-(γ-Glu)-CO-(CH2)16-CO2H on K17, Aib20, D-Glu24, αMeY25, C-terminal NH2

What follows are binders tested against T1, human gastric inhibitory peptide receptor (GIPR) (human, UniProt P48546 22-466) (assay: cell-based or functional assay).
T1 sequence (looked up): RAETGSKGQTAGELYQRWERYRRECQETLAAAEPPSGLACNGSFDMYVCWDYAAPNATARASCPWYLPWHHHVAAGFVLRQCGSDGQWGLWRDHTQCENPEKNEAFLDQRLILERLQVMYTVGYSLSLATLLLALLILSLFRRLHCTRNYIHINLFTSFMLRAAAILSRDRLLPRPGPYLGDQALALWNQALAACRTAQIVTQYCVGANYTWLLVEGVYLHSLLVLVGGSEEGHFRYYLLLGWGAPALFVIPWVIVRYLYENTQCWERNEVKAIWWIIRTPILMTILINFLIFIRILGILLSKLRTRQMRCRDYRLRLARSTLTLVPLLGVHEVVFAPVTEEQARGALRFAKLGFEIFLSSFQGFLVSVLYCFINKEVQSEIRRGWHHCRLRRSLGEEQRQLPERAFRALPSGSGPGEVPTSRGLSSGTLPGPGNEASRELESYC

Binder | hGIPR cAMP EC50 ratio | hGIPR cAMP Rel EC50
B1 | 2.82 | 0.0442 nM
B2 | 8.4 | 0.0196 nM
B3 | 0.0616 | 2.43 nM
B4 | 1.5 | 0.108 nM
B5 | 0.936 | 0.16 nM
B6 | 1.15 | 0.13 nM
B7 | 0.473 | 0.317 nM
B8 | 0.582 | 0.257 nM
B9 | 0.242 | 0.617 nM
B10 | 7.56 | 0.0229 nM

What follows are binders tested against human GLP-1 receptor (GLP-1R) (human, UniProt P43220 24-463) (assay: cell-based or functional assay).

Binder | hGLP1R cAMP EC50 ratio | hGLP1R cAMP Rel EC50
B1 | 0.627 | 0.0883 nM
B2 | 3.19 | 0.0229 nM
B3 | 0.401 | 0.174 nM
B4 | 0.974 | 0.054 nM
B5 | 0.75 | 0.0948 nM
B6 | 0.754 | 0.0943 nM
B7 | 0.906 | 0.0785 nM
B8 | 0.482 | 0.145 nM
B9 | 0.171 | 0.408 nM
B10 | 3.27 | 0.0223 nM
